Results reported in paper PMC7392006, “Demethylase-independent function of JMJD2D as a novel antagonist of p53 to promote Liver Cancer initiation and progression”.

Biological target: p53 (recombinant, Active Motif 81091) (Homo sapiens, UniProt P04637 1-393)
Test: EMSA; no JMJD2D; 5 mM Hepes pH 7.6, 100 mM KCl, 5 mM MgCl2, 1.25 mM DTT, 0.05% NP-40, 2.25% glycerol, 1 ug poly(dI.dC); 6% polyacrylamide gel; temperature not stated
Details: protein: commercial; chain copies: 4; label: biotin end label; blunt

Sequence of p53 (recombinant, Active Motif 81091) (P04637 whole entry): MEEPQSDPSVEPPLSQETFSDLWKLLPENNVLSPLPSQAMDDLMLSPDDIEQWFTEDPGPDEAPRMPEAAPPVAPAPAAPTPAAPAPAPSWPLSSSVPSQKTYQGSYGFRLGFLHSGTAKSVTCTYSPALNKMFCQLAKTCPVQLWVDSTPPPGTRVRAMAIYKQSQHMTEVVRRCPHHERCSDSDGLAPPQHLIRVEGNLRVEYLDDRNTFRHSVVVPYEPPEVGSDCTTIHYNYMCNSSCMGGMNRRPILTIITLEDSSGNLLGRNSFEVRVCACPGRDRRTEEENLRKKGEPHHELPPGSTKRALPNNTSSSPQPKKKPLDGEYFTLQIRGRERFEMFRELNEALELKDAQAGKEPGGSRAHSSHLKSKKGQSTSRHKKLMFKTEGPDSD

Binder	binding result
PUMA promoter p53 element (dsDNA) DNA 1: GCGCGCCTGCAAGTCCTGACTTGTCCGCGGCG DNA 2: CGCCGCGGACAAGTCAGGACTTGCAGGCGCGC	binds
p21 promoter p53 element (dsDNA) DNA 1: CTGGCCGTCAGGAACATGTCCCAACATGTTGAGCTCT DNA 2: AGAGCTCAACATGTTGGGACATGTTCCTGACGGCCAG	binds
